Columns and labels:
purified protein [1] = substrate: CC(=O)Oc1ccc([N+](=O)[O-])cc1; experiment: purified protein
purified protein [2] = substrate: CC=O; experiment: purified protein; type: biochemical, Homo sapiens; conditions: NAD+

Protein	Km (purified protein [1]) [µM]	Vmax (purified protein [1]) [µmol/min/mg]	Km (purified protein [2]) [µM]	Vmax (purified protein [2]) [µmol/min/mg]
ALDH1 (cytosolic aldehyde dehydrogenase, ALDH1A1) (Homo sapiens) (protein) SSSGTPDLPVLLTDLKIQYTKIFINNEWHDSVSGKKFPVFNPATEEELCQVEEGDKEDVDKAVKAARQAFQIGSPWRTMDASERGRLLYKLADLIERDRLLLATMESMNGGKLYSNAYLNDLAGCIKTLRYCAGWADKIQGRTIPIDGNFFTYTRHEPIGVCGQIIPWNFPLVMLIWKIGPALSCGNTVVVKPAEQTPLTALHVASLIKEAGFPPGVVNIVPGYGPTAGAAISSHMDIDKVAFTGSTEVGKLIKEAAGKSNLKRVTLELGGKSPCIVLADADLDNAVEFAHHGVFYHQGQCCIAASRIFVEESIYDEFVRRSVERAKKYILGNPLTPGVTQGPQIDKEQYDKILDLIESGKKEGAKLECGGGPWGNKGYFVQPTVFSNVTDEMRIAKEEIFGPVQQIMKFKSLDDVIKRANNTFYGLSAGVFTKDIDKAITISSALQAGTVWVNCYGVVSAQCPFGGFKMSGNGRELGEYGFHEYTEVKTVTVKISQKNS	0.69 ± 0.03	0.155	200 ± 14	1.06 ± 0.02
ALDH2 (mitochondrial aldehyde dehydrogenase) (Homo sapiens) (protein) SAAATQAVPAPNQQPEVFCNQIFINNEWHDAVSRKTFPTVNPSTGEVICQVAEGDKEDVDKAVKAARAAFQLGSPWRRMDASHRGRLLNRLADLIERDRTYLAALETLDNGKPYVISYLVDLDMVLKCLRYYAGWADKYHGKTIPIDGDFFSYTRHEPVGVCGQIIPWNFPLLMQAWKLGPALATGNVVVMKVAEQTPLTALYVANLIKEAGFPPGVVNIVPGFGPTAGAAIASHEDVDKVAFTGSTEIGRVIQVAAGSSNLKRVTLELGGKSPNIIMSDADMDWAVEQAHFALFFNQGQCCCAGSRTFVQEDIYDEFVERSVARAKSRVVGNPFDSKTEQGPQVDETQFKKILGYINTGKQEGAKLLCGGGIAADRGYFIQPTVFGDVQDGMTIAKEEIFGPVMQILKFKTIEEVVGRANNSTYGLAAAVFTKDLDKANYLSQALQAGTVWVNCYDVFGAQSPFGGYKMSGSGRELGEYGLQAYTEVKTVTVKVPQKNS	0.18 ± 0.01	0.21	0.33 ± 0.005	4 ± 0.03

Source: publication PMC2440601
